Common to all, as to settings: Sus scrofa
The test system of data set [1] is COc1ccc(C2=C(c3cc(OC)c(OC)c(OC)c3)CCCC2)cc1O. In words: (§1) Inhibition of porcine brain tubulin polymerization assessed as Vmax measured every 60 secs by turbidometric assay.
Data set [2] deals with COC(=O)Nc1nc2cc(C(=O)c3cccs3)ccc2[nH]1. The description is as §1.
The test system of data set [3] is CC(=O)O[C@H]1C(=O)[C@@]2(C)[C@H]([C@H](OC(=O)c3ccccc3)[C@]3(O)C[C@H](OC(=O)[C@H](O)[C@@H](NC(=O)c4ccccc4)c4ccccc4)C(C)=C1C3(C)C)[C@]1(OC(C)=O)CO[C@@H]1C[C@@H]2O. Described as §1.
The subject of data set [4] is COc1ccc(/C=C\c2cc(OC)c(OC)c(OC)c2)cc1O. The description is as §1.
Data set [5] relates to COc1ccc(C2=C(c3cc(OC)c(OC)c(OC)c3)CCC2)cc1O. The description is as §1.
In data set [6] the test system is COc1ccc(C2CCCCC2c2cc(OC)c(OC)c(OC)c2)cc1O. Described as §1.
Data set [7] concerns COc1ccc(C2CC2c2cc(OC)c(OC)c(OC)c2)cc1O. Described as §1.
Data set [8] relates to COc1ccc(C2CC2c2cc(OC)c(OC)c(OC)c2)cc1N. The description is as §1.
Data set [9] concerns COc1ccc(C2CCC2c2cc(OC)c(OC)c(OC)c2)cc1O. The data set is described as §1.
Data set [10] deals with COc1ccc(C2CCCC2c2cc(OC)c(OC)c(OC)c2)cc1O. Described as §1.
The subject of data set [11] is COc1ccc(/C=C\c2cc(OC)c(OC)c(OC)c2)cc1N. The data set is described as §1.
Data set [12] deals with COc1ccc(C2=C(c3cc(OC)c(OC)c(OC)c3)CC2)cc1O. The data set is described as §1.

For the substance “Tubulin (Sus scrofa) (from UniProt P02554+P02550)”, the Vmax (milli optical density/minute) in data set [1] came out at 16.2; in data set [2], 13; in data set [3], 84; in [4], 4.4; in data set [5] it was 10.6; in [6], 11.6. For the same substance, the Vmax (milli optical density/minute) in data set [7] worked out at 5.6; in [8], 5.4; in data set [9], 10.4; in [10], 12; in data set [11], 5.2; in [12] it was 9.
